Measurements from patent publication US20200255487A1, “A Cell-Based Seeding Assay for Huntingtin Aggregation” (THE REGENTS OF THE UNIVERSITY OF CALIFORNIA, priority 2017, published 2020).

Test system: HTT-ΔN17-46Q-GFP
Assay: cell-based HTT seeding assay (ΔN17-1E cells)
Parameters: species or system human
Details: ΔN17-1E (HEK293) cells; substance applied as seed; FIG. 4
From the text: Described herein is the development of a cell-based HTT seeding assay. A DNA construct encoding Exon1 of mutant human HTT with a 46 polyQ repeat was designed (FIG. 1C). This mutant HTT was engineered to delete amino acid residues 2-16 and was fused with a green fluorescent protein (GFP) at its C-terminus, named HTT-ΔN17-46Q-GFP hereafter. The HTT-ΔN17-46Q-GFP was then cloned into a pcDNA3 vector and transfected into HEK293 cells. Clones of stably transfected cells expressing HTT-ΔN17-46Q-GFP were selected to generate individual cell lines. Expression of the transgene in the cell lines was characterized to confirm its morphology, expression level and subcellular localization. Line 1E, named ΔN17-1E cells, was selected based on it moderate transgene expression with minimal protein aggregates at the baseline. Based on this cell line, a cell-based HTT seeding assay was developed. Extracellular application of preformed HTT aggregates or biosamples from HD patients as “seeds”, to ΔN17-1E cells could induce intracellular aggregation of HTT-ΔN17-46Q-GFP proteins (FIG. 1 through FIG. 3). […] Currently, the assay has been optimized to be performed in a high-throughput format, making it more capable with large quantity of samples. […]

B1: preformed mHTT-exon1 seeds: preformed mHTT-exon1 seeds derived from in vitro formed mHTT fibrils by sonication (protein)
chain: MATLEKLMKAFESLKSFQQQQQQQQQQQQQQQQQQQQQPPPPPPPPPPPQLPQPPPQAQPLLPQPQPPPPPPPPPPGPAVAEEPLHRP
  induction of intracellular HTT-ΔN17-46Q-GFP aggregation by extracellularly applied seeds: forms HTT-ΔN17-46Q-GFP aggregates
